According to article PMC2132798 (The Journal of Cell Biology, 1998):

B1: Myo3p (1,118–1,271) (domain or fragment, S. cerevisiae, UniProt P36006 1118-1271, looked up)
chain: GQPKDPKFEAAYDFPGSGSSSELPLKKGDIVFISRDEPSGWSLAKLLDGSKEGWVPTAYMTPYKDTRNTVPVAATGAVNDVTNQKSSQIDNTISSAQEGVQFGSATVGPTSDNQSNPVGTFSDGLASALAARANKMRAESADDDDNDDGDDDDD
B2: Myo5p (1,082–1,219) (domain or fragment, S. cerevisiae, UniProt Q04439 1082-1219, looked up)
chain: SSKPKEPMFEAAYDFPGSGSPSELPLKKGDVIYITREEPSGWSLGKLLDGSKEGWVPTAYMKPHSGNNNIPTPPQNRDVPKPVLNSVQHDNTSANVIPAAAQASLGDGLANALAARANKMRLESDDEEANEDEEEDDW
B3: Vrp1p (1–200) (domain or fragment, S. cerevisiae, UniProt P37370 1-200, looked up)
chain: MAGAPAPPPPPPPPALGGSAPKPAKSVMQGRDALLGDIRKGMKLKKAETNDRSAPIVGGGVVSSASGSSGTVSSKGPSMSAPPIPGMGAPQLGDILAGGIPKLKHINNNASTKPSPSASAPPIPGAVPSVAAPPIPNAPLSPAPAVPSIPSSSAPPIPDIPSSAAPPIPIVPSSPAPPLPLSGASAPKVPQNRPHMPSVR
B4: Vrp1p (195–817) (domain or fragment, S. cerevisiae, UniProt P37370 195-817, looked up)
chain: HMPSVRPAHRSHQRKSSNISLPSVSAPPLPSASLPTHVSNPPQAPPPPPTPTIGLDSKNIKPTDNAVSPPSSEVPAGGLPFLAEINARRSERGAVEGVSSTKIQTENHKSPSQPPLPSSAPPIPTSHAPPLPPTAPPPPSLPNVTSAPKKATSAPAPPPPPLPAAMSSASTNSVKATPVPPTLAPPLPNTTSVPPNKASSMPAPPPPPPPPPGAFSTSSALSASSIPLAPLPPPPPPSVATSVPSAPPPPPTLTTNKPSASSKQSKISSSSSSSAVTPGGPLPFLAEIQKKRDDRFVVGGDTGYTTQDKQEDVIGSSKDDNVRPSPISPSINPPKQSSQNGMSFLDEIESKLHKQTSSNAFNAPPPHTDAMAPPLPPSAPPPPITSLPTPTASGDDHTNDKSETVLGMKKAKAPALPGHVPPPPVPPVLSDDSKNNVPAASLLHDVLPSSNLEKPPSPPVAAAPPLPTFSAPSLPQQSVSTSIPSPPPVAPTLSVRTETESISKNPTKSPPPPPSPSTMDTGTSNSPSKNLKQRLFSTGGSTLQHKHNTHTNQPDVDVGRYTIGGSNSIVGAKSGNERIVIDDSRFKWTNVSQMPKPRPFQNKTKLYPSGKGSSVPLDLTLFT

What was measured:
Assay in all cases: two-hybrid
Vrp1p (1–200) = molecular target: B3
Vrp1p (195–817) = molecular target: B4
Myo3p (1,118–1,271) = molecular target: B1
Myo5p (1,082–1,219) = molecular target: B2

## B1
Vrp1p (1–200)
  lacZ activity (Miller units): 1610 ± 264 Miller units
Vrp1p (195–817)
  lacZ activity (Miller units): 96.3 ± 21.8 Miller units

## B2
Vrp1p (1–200)
  lacZ activity (Miller units): 1060 ± 149 Miller units
Vrp1p (195–817)
  lacZ activity (Miller units): 345 ± 7.3 Miller units

## B3
Myo3p (1,118–1,271)
  lacZ activity (Miller units): 254 ± 27.1 Miller units
Myo5p (1,082–1,219)
  lacZ activity (Miller units): 140 ± 2.3 Miller units

## B4
Myo3p (1,118–1,271)
  lacZ activity (Miller units): 74.5 ± 4.3 Miller units
Myo5p (1,082–1,219)
  lacZ activity (Miller units): 28.5 ± 2 Miller units
